Experimental data from the DeepSol protein solubility set.

Experiment: soluble on expression in E. coli; label from the status in PepcDB or PDB records
With “MGSDKIHHHHHHMSEAFLRFDGISVEFPGVKALDEVSFSARAGEVHALMGENGAGKSTLLKVLSGVNRPSSGQLWIDGQAHVFANAREALAHGIAIIYQELTLSPNLSVAENLLLGQLPERRGFIDRRTMKARAREILEELGEGDIDPATKVRELSIGQQQMIEIGRALLRDARIIAFDEPTSSLSVQETRQLKRIVARLRDEGRVVLYVTHRMEEVFEMCDAVTVFRDGRHIRTHETLEGLDHDMLVGEMVGRQIDDVYGFRPRDIGDVLMRIDGLQGRGVNEPVNLEVRRGEVLGLFGLVGAGRSELMRLVCGVEKASRGQVALRGETRVFASPHQAIRAGIAMCPEDRKSQGIFPVASVSDNLNISCRRFFRRWGMFRHAARETDNAKTYIQRLSIKTPSHRTPINTLSGGNQQKVILGRWLAEEIDLFVMDEPTRGIDVGARRDIYALLYDLAEQGKGVIVISSDLAEVSSICDRIGVMRDGVLVDIVPREQATQARLLGLALPA” the “soluble on expression in E. coli” value was “not soluble”. In the case of “MGSDKIHHHHHHMSEDILPITISLAGEKDTIRLGEDLALALKPGDCLTLIGDLGAGKSTLARAFIRAMADEPDLEVPSPTFTIIQTYTTRIPVAHLDLYRLSDVSELDELGIDEMLEDGICLIEWPDIAAEVLPPAQTITLQLTHSGEGRVAVIEAPAQQKARLDRVFAIREFLAKNGRGDATRRFLSGDASTRAYETISTDGPDLILMDWRRPMRGAIVADGKTYAEIVHLAQDARSFVAIGDYLRNSGFRAPEILAADIDQGILLLEDLGREGVLAADGTPIEERYLQSVACLATLHQTPRPALLPMRDGSTYDIPSFDRQAMKIEVSLLVEWYLPHKRGKALTDGEKQDYYAIWDGLIDALAGCETGLLLRDFHSPNILWQAQNSGIGQVGLIDFQDAMIGPTAYDLASIVQDARVTIPPELQTRLMSHYLNSRKATPAFDEAAFLKAFAIMSAQRNCKLAGIWVRLLERDKKPGYMKHMPRTFRYLADALSHPELAPLREWCVRMGMDFND”, the “soluble on expression in E. coli” value was “not soluble”. In the case of “MGSDKIHHHHHHMSESAESVDLIKLPVSKLTLGMFVSAIDKNDQGRLAIANAGQIKHKDAILKLTKNGIKYVWVDTERSAEHCGFKRKVSNDSQVKKSIVTREKQQEQAQVILTEAKDLIRKVLSETFEGKAIEVAPFEALADSMIESVLLDEDALKCMSALRTKDAYLLEHSVNVAFLLVTFGKYLKLDRSMLREMAVGGILHDIGKIKVDNKVLHKPGKLTPEEFEHMKLHQVYALEIMSETKGLSQISKDVCLMHHEKLDGRGYPRGLKGDEIPLHGRMSCIVDIFDALTATRCYKEAMSPAAAFKILLSLTPFHLDQQLVYDFIRCIGVYPVGSLVELSDGRVGIVWASKDRDALHPIVKCFYSLKAKRYTEVVIVDLLKSELHIERGVSPSSLDIDPTPFY”, the “soluble on expression in E. coli” value was “not soluble”. In the case of “MGSDKIHHHHHHMSESDGQSTPQDTREVIMEATFRALSKHGYKDLRVRDIGEEMEMSRQVIHYHFDGKYDLISSFLEYIIDQYEGSVEVDDETDPRTELDVRIDRCLFGPEFDDFSHWDRMKVYHELYAYAQNDDEHRALFNEHYDRLRKSISTVIEDGVEQGTFLDVDAELMGQLITDVIHAARGRRIALGHEDAPDEAKRAVNDFILDSLYPPQ”, the “soluble on expression in E. coli” value was “not soluble”. For “MGSDKIHHHHHHMSESWVAVTGATGFIGNALLQSLIKEGWKVRALTRRARVDDESTQWIEGDLHDRDALRKLVTGVSAVVHCAGQVRGSSLESFVRTNVEGTANLMQASLEQNPPPRFLLVSSLAARQPELSWYATSKHMAERLIDERSAGMACAIFRPTAVYGPGDKEMSPLFRITRRGILPMVGQPEMRFGLLHVADLVAAITCWLSTAVPVQGTYELDDGMPGGYDSQAVATIAQEVWKRPVRCVFFPAPLVSLIANINLWSARMLSYSPMLTPGKVRELRHPDWVCDIDPLTRALPGWRPCIHLRDALPQAV”, the “soluble on expression in E. coli” value was “not soluble”. In the case of “MGSDKIHHHHHHMSETSDTIREAFTESAWIPSPKEVFGPDGSLTEEVGEENKSLIWTLLKQIRPGMDLSKVVLPTFILEPRSFLEKLADYYYHADLISEAVAEPDPFQRIVKVTKFFLSGFYKKPKGLKKPYNPILGETFRCKWEHPDGSTTFYMAEQVSHHPPVSSLFITNRKAGFNISGTILAKSKYYGNSLSAILAGKLRLTLLNLGETYIVNLPYANCKGIMIGTMTMELGGEVNIECEKTGYRTTLDFKLKPMLGGAYNQIEGSIKYGSDRLASIEGAWDGVIRIKGPDGKKELWNPTPEVIKTRLPRYEINMDEQGEWESAKLWRHVTEAISNEDQYKATEEKTALENDQRARAKSGIPHETKFFKKQHGDDYVYIHADYRPWDNNNDIQQIENNYVVKTISRHSKRKTGNSEQLGSDNTSEASESDEE”, the “soluble on expression in E. coli” value was “not soluble”. For “MGSDKIHHHHHHMSEVLKRRMRCAVYTRKSTDEGLDQEYNSIDAQRDAGHAYIASQRAEGWIPVADDYDDPAFSGGNMERPALQRMMADIEAGKIDVVVIYKIDRLTRSLADFSKMVEVFERYAVSFVSVTQQFNTTTSMGRLMLNILLSFAQFEREVTGERIRDKISASKRKGMWMGGVPPLGYDVENRRLVPNEREAKLIRHIFQRFVELGSSTALVKELKLDGVTSKAWTTQDGKTRDGRLIDKGHIYKLLSNRTYLGELRHKDQWYQAEHPPIINRELWDSVHAILETNGRVRGNTTRAKVPYLLKGIVFGNDGRALSPWHTTKKNGRRYRYYVPQRDAKEHAGASGLPRLPAAELESAVLDQLRAILRAPNLLGEMLPQAIKLDPTLDEAKITVAMTRLDAIWDQLFPAEQTRIVKLLVEKVIVSPNDLEVRLRANGIERLVLELRPEPVEQQEVARA”, the “soluble on expression in E. coli” value was “not soluble”. With “MGSDKIHHHHHHMSEWDKNRWKEGRSSEYTWKGVVFMAKIMKQFLKGNDLSLSIQEIFKNELIPCTVRHLPKGEILWHDKEPHPYSYFIINGIIKLHVVTKEGREKALFYYTNGSLLGFQNLAKEKRTITTATAILPTSLYACEFSLLYTFVMNNPQYFAAFTSYIFHHMAVEAEEIVNISLYNTAERLAALLVLLAEEFPQNEQGYIEIPFNNEELATMVGACRNSVFNALSVFQKQKLIHKGRGRLVIADLPRLKEYV” the “soluble on expression in E. coli” value was “not soluble”. In the case of “MGSDKIHHHHHHMSFDAMNTTLSLNTSAGSQALTVRDPWALVPSLGDLNAYIAAVNRLPMLTLEEEQSLGQRLRDEHDLEAAGRLVLSHLRLVVSVSRQYLGYGLPHGDLIQEGNVGLMKAVKRFDPSQGVRLVSYALHWIKAEIHEYVLRNWRMVKLATTKAQRKLFFNLRSMKQGFKGDATDSDLHRSTLTDAEIDIVASELKVKREEVIEMETRLSGGDVALDPQTDDGDESYAPIAYLADDRHEPTRVLDAQRRDALAGDGIGEALDVLDARSRRIVEERWLKVNDNGSGGMTLHELAAEYGVSAERIRQIEVAAMKKMRKALAAYA”, the “soluble on expression in E. coli” value was “not soluble”. For “MGSDKIHHHHHHMSFKKSELLNVLDMAFKKEFGKGLSLISPQWGLIAMKISSSTKTNTYGWLGFFPKMREWVGERQIKKMQAQAMSIENKTFESTVSISRTDIEDDQAGLFAPVVQQAGQSAAELPDDLVFSLLAKGKSTLCYDGQNFFDTDHPVYENVDGTGSHKEQSNLTTGSASEHPTFYILDDTNAIKPFIWQERSAPEIETKFDPSRSDKVFMEDVYLWGVRARGNAGFGFWQLIHCVEETELTADAVMKVLAQMRMLKGDGGKLLNIRPSTILVPPALEFKARQLFEAEIINGSTNPLKGVLKVAVSAQIATA”, the “soluble on expression in E. coli” value was “not soluble”. In the case of “MGSDKIHHHHHHMSFMDQIPGGGNYPKLPVECLPNFPIQPSLTFRGRNDSHKLKNFISEIMLNMSMISWPNDASRIVYCRRHLLNPAAQWANDFVQEQGILEITFDTFIQGLYQHFYKPPDINKIFNAITQLSEAKLGIERLNQRFRKIWDRMPPDFMTEKAAIMTYTRLLTKETYNIVRMHKPETLKDAMEEAYQTTALTERFFPGFELDADGDTIIGATTHLQEEYDSDYDSEDNLTQNGYVHTVRTRRSYNKPMSNHRNRRNNNPSREECIKNRLCFYCKKEGHRLNECRARKASSNRS”, the “soluble on expression in E. coli” value was “not soluble”. For “MGSDKIHHHHHHMSGETLYQQLVNEWMELIRNGTVRPGERLPSVRKACAMHKVSPSTILQTYRMLEDRGLIEARPQSGFYVKSAASLPLPRMRRQSAAHHTGEVVDQIEAVMGVQSQADFIDLALASPRGSDFYPTTRFKHIMGRLLRQHPELTTDYPFPPGSERLRRQIAQRAVNWGCVLAADELVISNGCTEALQLALRAVCKPGDTVGVESPTYFALLPMLKDLGLAVIEIPTHPTSGLALDALELLLSEKRLNAVVAMPTVHNPLGSTMPPEAKRRLAQLVNDYQVPLIEDVPHAELFYGASTPDAVKAYDRDGWVLLCSSYSKTLAPGFRIGWIAPGRFLSEVRRLKFSSSLGQPALLEETLAEYLESGGYDHHLRLLRRHFISQMEKLRGAVAQHFPDGTRATLPSGGCLLWVELPSHADTMQLFRAALAERITVVPGAMYSAKGRYRNCLRLSCCYPWNEAYQRALIRVGELAGELAEGH”, the “soluble on expression in E. coli” value was “not soluble”. For “MGSDKIHHHHHHMSIIYRRRSIRKYQKKDVPDELVKEIIRAAMHAPSACNQQPWHFVVIRNEETKKKIAEIHPHAQMSAEAPVVILVCGDPTLEKCKGYWIQDCSAAVENLLLRATELGLGAVWCGVYPREERVKAFRELLGIPEHVVPFALVPVGYPAEHPVQVDRFKPERIHYEKW”, the “soluble on expression in E. coli” value was “not soluble”. For “MGSDKIHHHHHHMSIKSGFVALAGKPNVGKSTFINAVMGRKVVIVSDKPQTTRNRINCIYTDKDSQIIFVDTPGIHKPLHRLGEYMVKAAVQALKGVDLVLFMLDAADGFTKTDEHVAKIVNDSGTKTIIAVNKIDVAGEEKAKAVGELAKSMVENVVSVHYISALKGEGVFEVLEKIKEELPEGPQYYPEDMVTDRPLSFMAAEIIREKIFHLTRQEVPHSTAVVIEEIKDRPNGVLYIRANIYVERDSQKGILIGKNGSMIKKIGTLAREELEFLVGRKVYLDLNVKVKEKWREKDFIILQEIGLKDDIK”, the “soluble on expression in E. coli” value was “not soluble”. For “MGSDKIHHHHHHMSINDKEKKKLQRAILIIACEVARICKKNDIPYFINGGTQIGAVRHNGFIPWDDDFDIGFKRKDYEKFIKACDKDLNKDKFFLQTPETEEYYAFDFAKLQLKGTEIIEDFSKNVKIQHGIFVDLFPHDNIPDCKLKRKLFLFKNHLMKNILWVKCGYGEKKHKSKLSYKMVKFVSKFFSIKQIKQSRSKLLDKYNNTKTTQCIISDYPNDLIMNSWLDDLQLFRFEEVEFYGIKQYDAYLKSLYGDYMSLPPESERIVHSNYKIDFGLYDGLLEDMLYGNNI”, the “soluble on expression in E. coli” value was “not soluble”. With “MGSDKIHHHHHHMSITKRIRDNQRNTVLSPVPPFPKSMMLEPSNACNHACRFCGNNRSGIKRVNIPVDFARDILAQAAALGVEEVGLYLRGEPFLHPRLNEIVSYAKASGIGYVYLSSNGGCGTTEAYEAVLEAGLDSFKFSINAGNRQDFKAIHGKDDFEKVVERLRWLIAYREATGLDFKIYVSSTFIDATRGAILAMRDEFAPLVDEYYVHGTCPVPGVKSTDLDHGFSLPCPMVFNRVHVTAEGYLNACCFDFENALAVADLTRVPLNDAWASPLFEDLRRKHLMRNAKGVLCGNCVAGGGVEYEPLVMEFMSRSKRHENP” the “soluble on expression in E. coli” value was “not soluble”. With “MGSDKIHHHHHHMSKAKELTPEQFRKMQLTELDMLVEFDKVCRKHNINYVLFGGSLLGAVRHKGYIPWDDDADIGMLREDYDTFKKYASEMNSEICYFQDHDTDPEYRWGYGKLRRTNTIYVRVGQEHLKNKTGIFVDVFPMDDVPLSTLGQIVQDRKVYCLRKILWSEVARVQSTGFMKLWYSVLAKIPVEWVFSRLNKYAVKSKNITPNRVRCLSFPATGTLYKKNSLKTRYSMPKSWFTNRAEYLFEGRLLYSSKEYDEVLKYIYGKYMELPPKDKREQHSPFSKIKFQDEEMIV” the “soluble on expression in E. coli” value was “not soluble”. For “MGSDKIHHHHHHMSKIVALYNNKGGVSKTTTNFNLGVYLSQQGKRVLMVDCDPQCNLTELFFASRDDLEEPDVQLPGTSIYDALLPRFKGHQGRIEQSGIEVSEHSLYSSLFLFRGDLEFSRAETYLGTSWSQAVTENIHEKNTYIVFNKLMKDIGSARGYDYILCDVGPSTGAITKTVIISCDEIVIPLVPDRFCYQAVKLLGSVISEWIENHKIISDSLVPFGIEPFEGNPKLAGTVLQNFKVHAGSKVKESYIKWQKKITEEIQSSLCKENGFSPKVGFNIEEPYTASIKDVAVLAPVAQLFGRAIFDIEQEHTKEASSNGQMYYGTVWQPWLDRMSEYKEEIAKIAEAIS”, the “soluble on expression in E. coli” value was “not soluble”.
